Test results reported in publication PMC5362085, “Differential effects of DEAE negative mode chromatography and gel-filtration chromatography on the charge status of Helicobacter pylori neutrophil-activating protein” (PLoS ONE, 2017).

Molecular target: the molecule itself
Assay: native gel or EMSA; native-PAGE (10% gel) of the load (soluble E. coli lysate), unbound, wash and elution fractions of DEAE Sepharose and DEAE Sephadex batch chromatography, 20 mM Tris-HCl, 50 mM NaCl, pH 7.0 to 9.0 at 25°C; unbound fractions more than 90% pure

B1: Helicobacter pylori neutrophil-activating protein (natural protein)
chain: MKTFEILKHLQADAIVLFMKVHNFHWNVKGTDFFNVHKATEEIYEEFADMFDDLAERIVQLGHHPLVTLSEAIKLTRVKEETKTSFHSKDIFKEILEDYKYLEKEFKELSNTAEKEGDKVTVTYADDQLAKLQKSIWMLQAHLA
notes: HP-NAP, product of the napA gene (HP0243) amplified from genomic DNA of H. pylori strain 26695; subunit of approximately 17 kDa; It states no tag and speaks of recombinant HP-NAP in its native form; its own experiments show only an oligomer; also called HP-NAP; recombinant HP-NAP; source: E. coli BL21(DE3) (pET42a-NAP, IPTG); in soluble lysate and DEAE batch chromatography fractions; copies: 12
  binding result: binds
